Patent publication US20040071656A1, “Modulation of heat-shock-protein-based immunotherapies” (priority 2001, published 2004)

Biological target: T1, endogenous CD40 (Mus musculus, UniProt P27512)
T1 construct: endogenous CD40 in extracts of LPS-stimulated ANA1-cells; endogenous in cells; host or cells: ANA1 murine macrophage cell line, LPS-stimulated
T1 sequence (P27512 20-289): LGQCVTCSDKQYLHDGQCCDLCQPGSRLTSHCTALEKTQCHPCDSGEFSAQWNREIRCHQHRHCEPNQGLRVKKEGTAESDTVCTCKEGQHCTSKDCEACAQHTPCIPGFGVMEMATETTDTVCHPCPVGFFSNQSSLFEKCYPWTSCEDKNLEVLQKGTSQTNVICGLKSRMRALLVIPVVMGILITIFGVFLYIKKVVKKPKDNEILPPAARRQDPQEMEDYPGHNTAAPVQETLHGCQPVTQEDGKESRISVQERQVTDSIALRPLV
Test: Binding assay with His6-tagged Hsp70 and Ni-NTA-agarose, ANA1 cell lysate
Set-up: species or system murine
Settings: His-tagged Hsp70, with or without ADP
Method: Binding assay with His6-tagged Hsp70 and Ni-NTA-agarose. ANA1-cells were stimulated with LPS as described above and lysed in lysis buffer (150 mM Tris/HCl, ph 7,5, 1% CHAPS) for 45 min at 4° C. Cell lysate was centrifuged at 100,000 g for 15 min at 4° C. […] of the supernatant was incubated with 10 μg of His6-tagged Hsp70, preincubated with ADP and a 30-fold excess of peptide C, or mock treated, as described above for biotinylated proteins, for 30 min at 4° C. Thereafter the samples were added to 20 μl of 1% BSA-treated Ni-NTA-agarose (Quiagen) and incubated for 30 min at 4° C. Unbound protein was removed by washing the beads three times with 1 ml lysis buffer, and immobilized proteins eluted with 10 μl SDS-PAGE-sample buffer by incubation for 5 min at 95° C. Eluates were analyzed by immunoblotting using an anti-CD40 antibody (CSA-180, Stressgen).
Details for FIG. 3. […] Thereafter samples were affinity purified on glutathione-Sepharose as outlined in Experimental Procedures, subjected to SDS-PAGE and analyzed by immunoblotting with antibodies directed against Hsc70 and Hsp70 (upper lanes), and against Hsp90 (lower lanes). […] After affinity purification samples were analyzed by immunoblotting as described in A, using antibodies directed against the His6-tag. […] Protein bound to Hsp70 was analyzed by affinity purification on Ni-NTA-agarose and immunoblotting with antibodies directed against CD40.

Substance: Hsp70: Recombinant human heat shock protein 70, expressed and purified as His-tagged protein
- interaction with endogenous CD40 in extracts of LPS-stimulated ANA1-cells: interacted, in an ADP-dependent manner
